# ± gives the standard deviation of the averaged measurements.
# What was measured:
# [1] = test system: VchCAST RNA-guided transposition machinery (E. coli BL21(DE3) host, lacZ target); test: relative integration efficiency (T-RL orientation) vs wild-type transposon end (log2 (normalized fold change)); transposon end mutated: right end (5 bp flank + 75 bp right end); higher = more efficient transposition
# Procedure, shortened: (§1)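 A T7-driven effector plasmid encoding a CRISPR array, tniQ-cas8-cas7-cas6 and tnsA-tnsB-tnsC was co-transformed into E. coli BL21(DE3) together with a pUC57 mini-transposon donor holding barcoded pools of 1549 left-end or 1849 right-end variants. Transformants were plated with 0.1 mM IPTG at 37°C for 18 h. Illumina sequencing of PCR-amplified input plasmids and genomic integration junctions gave barcode abundances, and relative integration efficiency is their output/input fold change, normalised to reference barcodes and log-transformed.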
# [2] = test system: VchCAST RNA-guided transposition machinery (E. coli BL21(DE3) host, lacZ target); test: relative integration efficiency (T-LR orientation) vs wild-type transposon end (log2 (normalized fold change)); transposon end mutated: right end (5 bp flank + 75 bp right end); higher = more efficient transposition
# Procedure, shortened: as §1
Sequence,relative integration efficiency (log2) [1],relative integration efficiency (log2) [2]
ACATTTGTTGATACACCCATAAATTGATATTGCCAACCATAAGTTGATATTTTTCACACCCATAAATTGATATTGCCTCTGATCATAGTCAGACCAACATTGCTACGACCCGTATTCGCACCGACAC,-0.773 ± 0.11,-0.37 ± 0.1
ACATTTGTTGATACAACCATAAAATGATAATTACACCCATAAATACATAATTATCACACCCATAAATTGATATTGCCTCTGATCATAGTCAGACCAACATTGCTACGACCCGTATTCGCACCGACAC,-0.763 ± 0.18,-0.737 ± 0.026
ACATTTGTTGATACAACCATAAAATGATAATTACACCCATAAATTGATAATTATCTGTGCCATAAATTGATATTGCCTCTGATCATAGTCAGACCAACATTGCTACGACCCGTATTCGCACCGACAC,-0.555 ± 0.23,2.04 ± 0.1
ACATTTCTTGATACAACCATAAAATGATAATTACACCCATAAATTGATCATTATCACACCCAATTTAACTATAACGCTCTGATCATAGTCAGACCAACATTGCTACGACCCGTATTCGCACCGACAC,-1.92 ± 0.52,1.34 ± 0.11
ACATTTGTTGATACAACCAATAAAAGATAATTACACCCATAAATTGATAATTGTGACACCGAATTTAACTATAACGCTCTGATCATAGTCAGACCAACATTGCTACGACCCGTATTCGCACCGACAC,-2 ± 0.21,1.26 ± 0.029
ACATTTGTTGATACAACCATAAAATGATCATTACACCCATCAATTGATAATTATCCCACCCAATTTAACTATAACGCTCTGATCATAGTCAGACCAACATTGCTACGACCCGTATTCGCACCGACAC,-2.65 ± 0.42,0.874 ± 0.13
ACATTTGTTGATACAACCATAAAATGATAATTAATAATTACACCCATAAATTGATAATTATCAACAAACGCCCGGTCGCGGTACTCTGATCATAGTCAGACCAACATTGCTACGACCCGTATTCGCA,-2.18 ± 0.28,1.37 ± 0.24
ACATTTGTTGATACAACCATAAGTTGATATTTTCAACCATATATTGATATCTCTCAGTGGGTATTTAACTATAACGCTCTGATCATAGTCAGACCAACATTGCTACGACCCGTATTCGCACCGACAC,-1.15 ± 0.24,2.4 ± 0.039
ACATTTGAAGATACAACCATAAAATGATAATTACACCCATAAATTGATAATTATCACACCCATAAATTGATATTGCCTCTGATCATAGTCAGACCAACATTGCTACGACCCGTATTCGCACCGACAC,-0.132 ± 0.019,-0.786 ± 0.12
ACATTTGTTGATACAACCATAAAATGATAATTACTCTGATCATAGTCACACCCATAAATTGATAATTATCAGTGGGTATTTAACTATAACGGACCAACATTGCTACGACCCGTATTCGCACCGACAC,-3.34 ± 0.27,-0.9229 ± 0.0035
ACATTGGTTGATACAACCATAAAATGATAATTACACCCATAAATTCATCATTATCACACCCAATTTAACTATAACGCTCTGATCATAGTCAGACCAACATTGCTACGACCCGTATTCGCACCGACAC,-7.43 ± 0.34,-5.884 ± 0.042
ACATTTGTTGATACACCCATAAATTGATAATTACACCCATAAATTGATAATTATCACAACCATATATTGATATCTCCTCTGATCATAGTCAGACCAACATTGCTACGACCCGTATTCGCACCGACAC,-0.596 ± 0.21,-0.271 ± 0.04
ACATTTGTTGATACAACCATAAAATGATAATTACAGGCATAAATTGATAATTATCACACCCATAAATTGATATTGCCTCTGATCATAGTCAGACCAACATTGCTACGACCCGTATTCGCACCGACAC,-0.00584 ± 0.032,-0.52 ± 0.19
ACATTTGTTGATACAACCATAAAATGATAATTACACCCATAAATTGATAATTATCACACCCATAAATTGATATTGGGAGTGATCATAGTCAGACCAACATTGCTACGACCCGTATTCGCACCGACAC,-0.111 ± 0.04,0.108 ± 0.15
ACATTTGTTGATACAACCATAAAATGATAATTACCCCCATCAATTGATAATTATCCCACCCCATTTAACTATAACGCTCTGATCATAGTCAGACCAACATTGCTACGACCCGTATTCGCACCGACAC,-2.78 ± 0.51,0.417 ± 0.32
ACATTTGTTGATACAACCATAAAATGATAATTACACCCATAAATTGATAATTATCACACCCATAAATTGATATTGCCGAGGATCATAGTCAGACCAACATTGCTACGACCCGTATTCGCACCGACAC,0.325 ± 0.077,0.294 ± 0.46
ACATTTGTTGATACAACCATAAAATGATCATTACCCCCATAAATTGATAATTATCCCACCCAATTTAACTATAACGCTCTGATCATAGTCAGACCAACATTGCTACGACCCGTATTCGCACCGACAC,-2.11 ± 0.51,1.58 ± 0.2
ACATTTGTTGATACAACCATAATTACATAATTACACCCATAAATTGATAATTATCACACCCATAAATTGATATTGCCTCTGATCATAGTCAGACCAACATTGCTACGACCCGTATTCGCACCGACAC,-2.32 ± 0.15,-2.85 ± 0.16

Sequence,relative integration efficiency (log2) [1],relative integration efficiency (log2) [2]
ACATTTGTTGATATGCAACCATAAAATGATAATTACACCCATAAATTGATAATTATCACACCCATAAATTGATATTGCCTCTGATCATAGTCAGACCAACATTGCTACGACCCGTATTCGCACCGAC,-6.537 ± 0.019,-7.72 ± 1.2
ACATTTGTTGATACAACCATAAAAGGATAATTACACCCATAAATTGATAATTATCACACCCCATTTAACTATAACGCTCTGATCATAGTCAGACCAACATTGCTACGACCCGTATTCGCACCGACAC,-1.31 ± 0.2,2.32 ± 0.013
ACATTTGTTGATACAACCATAAAATGATAATTAATAATTATTTATAATCAGCAACTTAACCACAAAACACCCATAAATTGATAATTATCAACAAACGCCCGGTCGCGGTACTCTGATCATAGTCAGA,-4.43 ± 0.39,-2.48 ± 1.9
ACATTTGTTGATACAACCATAAAATGATAATTACACCCATAAATTGATAATGCGAACACCCATAAATTGATATTGCCTCTGATCATAGTCAGACCAACATTGCTACGACCCGTATTCGCACCGACAC,-0.292 ± 0.045,0.16 ± 0.083
ACATTTGTTGATACAACCATAAAATGATAATTACACCCATAAATTGATAATTCGCACACCCATAAATTGATATTGCCTCTGATCATAGTCAGACCAACATTGCTACGACCCGTATTCGCACCGACAC,-0.551 ± 0.065,0.189 ± 0.39
ACATTTGTTGATAGAACCATATAATGATAATAACACCCATAAAATGATAATTATCACACCCAATTTAACTATAACGCTCTGATCATAGTCAGACCAACATTGCTACGACCCGTATTCGCACCGACAC,-1.72 ± 0.33,1.28 ± 0.069
ACATTTGTTGATACAACCATAAAATCATAATTACACCCATCAATTGATAATTATCCCACCCAATTTAACTATAACGCTCTGATCATAGTCAGACCAACATTGCTACGACCCGTATTCGCACCGACAC,-3.92 ± 0.52,-0.195 ± 0.066
ACATTTGTTGATACAACCATAAAATGATAATTACACCCATAAATTGATAATTATCACACCCATAAATTGATATTGCCTCTGTACGATCCAGTGATCTCCAAGACGCTGCAAGAGTCCGCACCGACAC,0.0556 ± 0.23,-0.117 ± 0.38
ACATTTGTTTATACAACCATAAAATGATAATTACACCCATAAATTTATTATTATCACACCCAATTTAACTATAACGCTCTGATCATAGTCAGACCAACATTGCTACGACCCGTATTCGCACCGACAC,-2.66 ± 0.6,-0.334 ± 0.058
ACATTTGTTGATATCAACCATAAAATGATAATTACACCCATAAATTGATAATTATCACACCCATAAATTGATATTGCCTCTGATCATAGTCAGACCAACATTGCTACGACCCGTATTCGCACCGACA,-0.0259 ± 0.16,-1.376 ± 0.0096
ACATTTGTTGATACAACCATAAAATGATAATTACTCTGATCATAGTCAGACCAACATTGCTACGACCCGTATTCGCACCGACACACCCATAAATTGATAATTATCAGTGGGTATTTAACTATAACGC,-1.05 ± 0.17,2.24 ± 0.21
ACATTTGTTGATACAACCATAAAATGATAATTACACCCATAAATTGATAATTATCACACCCATAAATTGATATTGCCTCTTTGTGAGCGGATAACAAGATCATAGTCAGACCAACATGCACCGACAC,-0.26 ± 0.07,-0.434 ± 0.17
ACATTTGTTGATACAACCATAAAATGATAATTACACCCATAAATTGAGCATTATCACACCCATAAATTGATATTGCCTCTGATCATAGTCAGACCAACATTGCTACGACCCGTATTCGCACCGACAC,-0.525 ± 0.0063,-0.422 ± 0.13
ACATTTGTTGATACAACCATAAAATGATAATTACACCCCGCCATTGATAATTATCACACCCATAAATTGATATTGCCTCTGATCATAGTCAGACCAACATTGCTACGACCCGTATTCGCACCGACAC,-3.5 ± 0.22,-2.56 ± 0.28
ACATTTGTTGATACAACCATAAAATCATAATTCACCCCTAAATTGATAATTATCACACCCACATTTAACTATAACGCTCTGATCATAGTCAGACCAACATTGCTACGACCCGTATTCGCACCGACAC,-6.26 ± 0.19,-1.89 ± 0.27
ACATTTCTCGATACAACCATAAAATGATAATTACACCCATAAATTCATAATTATCACACCCAATTTAACTATAACGCTCTGATCATAGTCAGACCAACATTGCTACGACCCGTATTCGCACCGACAC,-1.95 ± 0.18,0.496 ± 0.27
ACATTTGTTGATACAACCATAAAATGATAATTACACCACGCAATTGATAATTATCACACCCATAAATTGATATTGCCTCTGATCATAGTCAGACCAACATTGCTACGACCCGTATTCGCACCGACAC,-3.04 ± 0.044,-2.53 ± 0.18
